The results in this text go back to a protein production outcome set (Wang et al. 2014).

This series in a line: label from the status in PepcDB records.
As for “MNLTKVKGNTFFIKGGTNTGIYVFEDNTALMIDPGLCGSRPRRVNKVLDENNIQVRYIINTHGHDDHYGACNQFKEYYKDVCIMSSEYDKLYIENPELFSKYIVGGKSNVFMDNILKNKMLDDIKIDKSIEAGKFELNNEMFDIIEFQGHTPGSIAVLTKDNVIFVGDLLIGDEILSKYDFLFLYDIQEQINSLEKLKNIDFEYLVLGHGKQVISKEDSYKLIEKHLNALKKYLYQIRELLVEPKSLEILLKNIINNNNLSNNYKEYHFFKSSLVSVISYLVDLEEIGYILENGELLYYTKTK”, the protein production entry was “failed”.
In the case of “MNMDPLIYVAALLFTGLLAGLATGLLGVGGGFIIAPVLFFLMEAGGTPPDIAIRTAFGTSLAIILPTALSGAHSHYRRKCVDSRIGITMGVLGACGSVAGVFTASASPAYVLRAFFGVLLILVSAQLLLSSRISPSGFGRNAAFPLGFLAGFLSGLLGIGGGVVLVPLLVMVAGFDVLEAVGTSSLVIAFTAASGTISYIFTGPGGPFTVGYVNLLQFLLVIVMSVPSSRLGALIAHRVDVRYIRYIFIILLLFTGLKMLL”, the protein production result is recorded as “failed”.
For the sequence “MNMIRRLTALTLSLMLAGGPALAQTVVIVRHGEKVSPNGDPDLSDAGKARAQALAAALAGARVSTVLATPLKRTQQTAQPTADAAGLVIRTIALDGGVPAHAQRVAEVARQAPKDATVLIVGHSNTVGEIARALGDAAPSPVTDCDYDQMTIISLDAPTARTLHARYGAPTLPCPTN”, the protein production result is listed as “failed”.
The entry for “MNNKDLWIKEEIIWSEHKCIRFAAGGYEALIIPDVGGNVVELKDTNKGVTILRTPKKDLKFEDFKNRPQVYGLPVLFPPNRIDDGTFKLGDKTYKFPINEAKNNNYIHGFIKNSKWTVHKKKIDQDKALVEVVFDFTKENEAYKYFSHEFQFKLSYELSSKGLKQTTSVVNLSSEEMPLSVGYHSAFNVPFIEGSEDSNCRVKISIDKFWKQDSRNLPTGESFAPTGEQKEYLENGVAVASHPIESLFSLKDIDVNGKTFRGACIEDASKNTRVVYEMSSEYKYLVIWNDMGDKKYACIEPQTSIINSPNVKLDRSVSGFKTLKPNESWSGVCKLYIENM” is “not failed”.
The entry for “MNNLFVYCEIEEGIVADVSLELLTKGRSLANELNCQLEAVVAGTGLKEIEKQILPYGVDKLHVFDAEGLYPYTSLPHTSILVNLFKEEQPQICLMGATVIGRDLGPRVSSALTSGLTADCTSLEIGDHEDKKEGKVYKNLLYQIRPAFGGNIVATIVNPEHRPQMATVREGVMKKEIVSPAYQGEVIRHDVKKYVADTDYVVKVIERH” is “not failed”.
For the sequence “MNNLIITTRQSPVRLLVDYVATTILWTLFALFIFLFAMDLLTGYYWQSEARSRLQFYFLLAVANAVVLIVWALYNKLRFQKQQHHAAYQYTPQEYAESLAIPDELYQQLQKSHRMSVHFTSQGQIKMVVSEKALVRA”, the protein production result is listed as “failed”.
As for “MNNLQTKFPHIAIKLNEPLSKYTYTKTGGAADVFVMPKTIEEAQEVVAYCHQNKIPLTILGNGSNLIIKDGGIRGVILHLDLLQTIERNNTQIVAMSGAKLIDTAKFALNESLSGLEFACGIPGSIGGALHMNAGAYGGEISDVLEAATVLTQTGELKKLKRSELKAAYRFSTIAEKNYIVLDATFSLALEEKNLIQAKMDELTAAREAKQPLEYPSCGSVFKRPPGHFAGKLIQDSGLQGHIIGGAQVSLKHAGFIVNIGGATATDYMNLIAYVQQTVREKFDVELETEVKIIGEDK”, the protein production entry is reported as “not failed”.
The entry for “MNNNDLFQASRRRFLAQLGGLTVAGMLGPSLLTPRRATAAQAATDAVISKEGILTGSHWGAIRATVKDGRFVAAKPFELDKYPSKMIAGLPDHVHNAARIRYPMVRVDWLRKRHLSDTSQRGDNRFVRVSWDEALDMFYEELERVQKTHGPSALLTASGWQSTGMFHNASGMLAKAIALHGNSVGTGGDYSTGAAQVILPRVVGSMEVYEQQTSWPLVLQNSKTIVLWGSDLLKNQQANWWCPDHDVYEYYAQLKAKVAAGEIEVISIDPVVTSTHEYLGREHVKHIAVNPQTDVPLQLALAHTLYSENLYDKNFLANYCVGFEQFLPYLLGEKDGQPKDAAWAEKLTGIDAETIRGLARQMAANRTQIIAGWCVQRMQHGEQWAWMIVVLAAMLGQIGLPGGGFGFGWHYNGAGTPGRKGVILSGFSGSTSIPPVHDNSDYKGYSSTIPIARFIDAILEPGKVINWNGKSVKLPPLKMCIFAGTNPFHRHQQINRIIEGLRKLETVIAIDNQWTSTCRFADIVLPATTQFERNDLDQYGNHSNRGIIAMKQVVPPQFEARNDFDIFRELCRRFNREEAFTEGLDEMGWLKRIWQEGVQQGKGRGVHLPAFDDFWNNKEYVEFDHPQMFVRHQAFREDPDLEPLGTPSGLIEIYSKTIADMNYDDCQGHPMWFEKIERSHGGPGSQKYPLHLQSVHPDFRLHSQLCESETLRQQYTVAGKEPVFINPQDASARGIRNGDVVRVFNARGQVLAGAVVSDRYAPGVARIHEGAWYDPDKGGEPGALCKYGNPNVLTIDIGTSQLAQATSAHTTLVEIEKYNGTVEQVTAFNGPVEMVAQCEYVPASQVKS” is “failed”.
As to “MNNPQCSYTVRCFFLALLVNLFLPNILPRQLASAQDVPSEASSDAPDLGVVWTPSTAPDSALAALDRIAATGATAVRLTHLPADTTATTIATRADSLGLRLYVDLPMADGSAPRPDEARPQADASLDQLRSLANRHASITHVGLARGASTTGSRRCDRLRRWTERIHDASASLHTYYVTPFVPSADRCADAVDQPLLDLRGHPRPTDRWRAWRTRTDSVGIGALGTWTRPAAASGLRVPHSAERQARYLETTLSRLLDPTRAAPPVVFVARWQDDDASLLPSRRYGLHDAAGTPRPAATVVRGLYSGTQRTFAFPDGSAPAGTSGLVLVGWGLVAVLGLLYARSLFVRETAVRYFTTPGFYREALRDGREVSFGANSLLLGLVGGSLGVAAARMARLATAQPETERVLAALPRVVGTALAPGVEHPTLAGVAVGGGALVLLLLWTGAGVAMARLGTRFTVAQGLMLVTWPCWPVLLAPPVALAAGPNAPLSPSLSTLVLLGGGTLVLLSVTLRVLFDYWRVTDAPAWTLLPLAALSPLALVGASLLVAAQYGVSFSLLWRLAVYT”, the protein production entry is reported as “failed”.
As for “MNNRGAVTDMISQLPEPLILQILGSLPTKVAITTSVLSKQWQSHWKMMPKLEFDSFLRRLDLENVTKCLLSHKAPVLQTFSLKVRLDRRNNAVDIGCLIGIAMTRNVRKLVLEVYFHRGTFTFPRSLYHCETLETLELILNVVMDVPPSVYLKSLKTLYLLAVDFKDDESVINLLSGCPNLQDLVMRRNSSSNVKTFTIAVPSLQRLAIHNGSGTPQHCGYTINTPSLKYLKLEGSKAFESFMVENVSELIEVNITDVSEIIDEKLRVFLTSVTRLSLALSPSVFTFPTGIIFNQLVYLEICTNKTSWWKLLPLMLHSSPKLQVLKLIDDTDGMNYVEASGEWNQPKNVPECLHHLEKFIWEGYKWKREEIEVAKYILKNTNRLKRAIFSLKGISSEDRLVVVEDLKSVVMATTNSCQFQFI”, the protein production result is on record as “failed”.
The same measure for “MNNRVEILYCTQCRWLLRATWMTQELLTTFDQEIGELTLKPGTGGLFEVWVNGKRIWSRKEQGGFPEISELKRLVRDEVAPGRDLGHADQKGKTGASPAPAEP”: “failed”; for “MNNSVSSGYDVIGDVHGCASQLEVLLHKLGYETGASGEYRHPERQAIFVGDLIDRGGEQLRVLEVVKAMVDAGSALIVMGNHEFNALAYHTEWPVGSGKYLRPHDDPDNPWSAKNTKQHAAFLDQVRGEDRQRCLEWFATIPLWLDLGELRVVHACWHDDSIGVVENLCGSNAPFGDVSHLVAASTEDDPLYEAVETLLKGPEINLVAHGQPEYHDKDGIPRDNARVQWWNSDARTLRDIAEMGGGFTTSTGEPYPPLPEIALTGADRSYIYTAEIPVFYGHYWRQGSPKHRHDWTDYTACVDFSAVKGGRLTAYRWSGESTIKAENYVTAD”: “failed”.
In the case of “MNNTDCLLGRRKEINETAYANVLKKELVVYMKRKLMIFFIASVVTLLICSVAVLASGEDVHILINNNGIKFSIPPYVKDEEVFLPMREIFELYGFEVNWNGTERSAEAAKDGKIVKVKVGSNIVKLYGEDYNSKDDVFIFRDRIFISTDVIEAGLNIKVKWDKNKRTIYLNEYTNESITIVGNDNSVILGSNILVNISPRYDIDTVNKIIGENDEMLVEKNYTGAIRGYKELLKHISAKENPEEYIHVLINLGNAYVELASIVNREQNALEAILFYEEALKVDSIDKYPHKKALANRGMGSAYFILSTVRDVEKNTAKALEMFNEALNIFVKDGDQYNCGYLHYLKGRTYYWMAASTNTRDNIIKSLDSLEEALTTFNTENYKDEYIIARSCHGLVLTQFFNFSGEVEHLQRAFDAFNEVLDNITIEEKPILYASTYMQLASYYMYLANKDGDVESYYKCISCMQESLKVYTLDSDSYNYAVAYANIGKAYLLMSYLSQTNVNIDRALSAYEEALKVFKISQFPFNYASVQIDLGEAYTVKAGITGSEEDYNNAQNAFNNALKIYTLKNYPYQYAKTYSEFGKMYIALAYIKDKEENNKKAIECFNEALKVYSFEKYPVLYGYNQELIALSNIELSKIRDPKKHLNKSVEVCNNALKVFRKENIPYLYGVVNIYLGNSYTFLASIENTKENCIQAEKAYMNALEIFTKDASLTYYLEAMTGLAENYVIKSQVENRKENLEKAIAKCNDIIELLDRHRSSPYYGKAQYILLLSYLGLSDFENKEVNLNKALIANREAVSVFEEGNLVFDKSIALAAGANIYLKYSEVNNTVKNLTEAKRTVESALTYFKKENYPYQYAILMNSMGTIYQKLSEKENRIDNLKKSIEAYKEANEIFSIEEYGLYFAKTKHDMGDVYMKLAGSEDRKANIQKALECFSEAIRIYTNEDYPLIHEEIIKKMENIKK”, the protein production result is on record as “failed”.
Regarding “MNNTGLSVKKVVAIGIGSAIYVILARFTSIPTPIPNTNIELVFPFLAFFASIYGATVGFSVGFIGHALSDFIMYGQTWWSWVLATGILGWIIGLAYKRLDLKNGIFGLKQIILFNIVQIIANILAWIVVAPIGDIIIYSEPANKVFVQGISATISNGISILIIGTILLKAYASTKIKKGSLRKED”, the protein production result was “failed”.
The same measure for “MNNVTTTLTDTTWYKAGTITDVPENGGACAMIQGKQIAIFNFTRRDEWFATDNLCPHKQQMILSRGMIGDMSEEPKVACPFHKKSFSLKDGHCMSGDDYTIKTYPIKVEDGLIFIGLNE”: “failed”.
The entry for “MNPANGEVTSYWFPGTTSGILTRNGSMIHLLSITASVLHPDDPSLSERESVQVQQYRLSSLLAAVLLPVFGTLYSWADPQAVDPAWIRLALSGLLLGLFVGSYLSDRVCRNYVPLT” is “failed”; for “MNPDFLGALLIGLVGAGHCMGMCGGIASLLSLGSSSSKSSPTIPLFYNLGRLSSYALIGALVGGAISGLSELSGLAQSLAWLRFVAAIFMILVALYIAKWWQGLLIVEKMGQHLWKFISPAGKSLLPLKKPIHALPFGFVWGWLPCGLVYSALTWSAVSGSAVNGGLIMLAFGLGTLPSMLAVGYGASHFQKLQKSLIFRNISALILIVYGAYTAAGAMQMLGFI” it is “failed”.
The entry for “MNPGAYAVPSSAQGWTGTESIGKSSAVNHHRDDGGQEMAGALRKMAVYLGLVEDDRYDHRYADEYDDFEDFDEPLDERPSRNRSPRDDSRNNAVTDSSDHSPSRNERRSPAPAPATADLARITTLHPRTYNEARTIGEHFREGIPVIMNLTEMVDSDAKRLVDFAAGLIFGLHGSIERVTNKVFLLSPANVEVTAEDKARIAERGFFNQS” is “failed”; for “MNPGGAEVSVVIPAWNAEATLGRALASVRAQTLAPRQVIVVNDGSSDATPEIAARMATKTFPVTVIDRTGRGSGPAAARNAGIAAAGEPFVAFLDADDVWLPDKLARQMAALRASPDAVLCCCDAQWVGEDAPARTAHPTIYEDRPIKGGAEAWKEILLDCYVGTPCVVARRAALIEAGGFDERLVVGEDQDLWIRLALQGPVIALPEVLVRYGLSADSHMARHRALAASLWLPHFEALVSGLGARLSAGERDAILRARLWRMARSVYLDGRKDLGLSLMARAVAHGLPRRARMVFLARARLRSALGRNGLEHHHHHH” it is “failed”.
